Assay results reported in US20260234227A1 (CEPHALON, published 2026).
Positions count from the first letter of the chain named. Numbers in names are those of the source.

How the values were obtained:
[1] = target: T1, Secretin; assay: SPR (Biacore), captured antibody, 37.5 nM peptide injected at 37 C, relative response after 15 sec dissociation
T1 construct: the listing entry is to be used
T1 peptide: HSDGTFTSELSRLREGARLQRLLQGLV
Method: (§1) The anti-PACAP antibodies, e.g., 890C, were tested against related peptides in the Secretin Glucagon family (Table 10) to determine the presence and extent of any off-target binding. Nine bioactive peptides in the glucagon superfamily are: PACAP, VIP, glucagon, Glucagon-Like Peptides (GLP-1, GLP-2), Growth Hormone Releasing Factor (GRF or GHRF), Peptide Histidine Methionine (PHM), secretin, and Gastric inhibitory polypeptide (GIP). Following capture of antibodies as described in example 4, the antibody and the peptide interaction was measured by injection of 37.5 nM of each peptide diluted in buffer at 37° C. with a flow rate of […] for 2 min followed by a dissociation phase of 4-5 min. Samples were injected in a multi-cycle manner over freshly captured anti-PACAP antibody, by regenerating the capture surfaces with two injections of 0.85% phosphoric acid at a flow rate of 30 μL/min.
(§2) The selectivity of antibody 890C was assessed by comparing the inhibition of PACAP38-signalling to inhibition of VIP-signalling in a cyclic AMP (cAMP) measuring cell-based functional assay.

[2] = target: T2, Growth Hormone Releasing Factor (GRF or GHRF); assay: as above
T2 construct: the listing entry is to be used
T2 peptide: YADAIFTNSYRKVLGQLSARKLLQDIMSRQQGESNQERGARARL
Method: as §1, §2

[3] = target: T3, Gastric inhibitory polypeptide (GIP); assay: as above
T3 peptide: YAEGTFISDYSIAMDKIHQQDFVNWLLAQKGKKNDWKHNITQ
Method: as §1, §2

[4] = target: T4, Glucagon-Like Peptide 2 (GLP-2); assay: as above
T4 peptide: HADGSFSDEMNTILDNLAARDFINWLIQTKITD
Method: as §1, §2

[5] = target: T5, Glucagon-Like Peptide 1 (GLP-1); assay: as above
T5 peptide: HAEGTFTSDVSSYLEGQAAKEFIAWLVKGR
Method: as §1, §2

[6] = target: T6, Peptide Histidine Methionine (PHM); assay: as above
T6 peptide: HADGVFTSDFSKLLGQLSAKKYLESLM
Method: as §1, §2

[7] = target: Glucagon; assay: as above
Method: as §1, §2

[8] = target: T7, pituitary adenylate cyclase-activating peptide, 38-amino acid peptide (PACAP38) (human, not fully specified); assay: cell-based or functional assay
T7 peptide: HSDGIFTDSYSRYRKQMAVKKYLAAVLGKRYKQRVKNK

[9] = target: T8, vasoactive intestinal peptide (VIP) (human); assay: cell-based or functional assay
T8 peptide: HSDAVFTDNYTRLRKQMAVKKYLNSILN

[10] = target: T7, pituitary adenylate cyclase-activating …; assay: cell-based or functional assay
[11] = target: T9, pituitary adenylate cyclase-activating peptide, 27-amino acid peptide (PACAP27) (human, not fully specified); assay: SPR; target PACAP27
T9 peptide: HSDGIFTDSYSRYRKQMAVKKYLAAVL
Method: (§3) In brief, antibody and peptide interaction was determined on a Biacore S200 (GE Healthcare) by method previously described (Andreu and Gomes 2002). An anti-Human IgG Fc capture antibody was immobilized on a CM5 biosensor chip via standard amine coupling. Anti-PACAP antibodies were injected and captured to 200 to 400 response units (RU),). PACAP38, PACAP27 and VIP were diluted in HBS-EP+buffer containing 0.1% w/v BSA (Bovostar, catalog number BSAS1.0) and 0.15 M NaCl (Sigma-Aldrich catalog number S7653), pH 7.4. Binding kinetics of antibodies were determined by injection of two-fold serial dilutions of PACAPs (12 nm to 0 nM) and VIP (1200 nM to 0 nM) in running buffer at 37° C. with a flow rate of 40 uL/min for 2 min followed by a dissociation for 10 minutes. For subsequent cycles, the chip was regenerated using 0.85% phosphoric acid. Data was analysed with the Biacore S200 Evaluation Software (ver 1.0). Association rate (kₐ) and dissociation rate (kd) constants were determined using a simple one-to-one Langmuir binding model and used to calculate the equilibrium dissociation constant (KD).
as §2

[12] = target: T7, pituitary adenylate cyclase-activating …; assay: SPR; target PACAP38
Method: as §3, §2

[13] = target: T7, pituitary adenylate cyclase-activating …; assay: cell-based or functional assay
[14] = target: T7, pituitary adenylate cyclase-activating …; assay: SPR (Biacore) off-rate ranking, antibody captured from supernatant, single injection of 33.3 nM PACAP38
Method: as §3, with “Binding kinetics of antibodies were determined by injection of two-fold serial dilutions of PACAPs (12 nm to 0 nM) and VIP (1200 nM to 0 nM) in running buffer at 37° C. with a flow rate of 40 uL/min for 2 min followed by a dissociation for 10 minutes.” left out

[15] = target: T7, pituitary adenylate cyclase-activating …; assay: cell-based or functional assay
[16] = target: T8, vasoactive intestinal peptide (VIP); assay: SPR; target VIP
Method: as §3, §2

[17] = target: T7, pituitary adenylate cyclase-activating …; assay: SPR (Biacore), 37 C, antibody captured by anti-human IgG Fc, PACAP-38 as analyte
Method: as §3

[18] = target: T8, vasoactive intestinal peptide (VIP); assay: SPR (Biacore S200), 37 C, captured antibody, steady state binding
[19] = target: T9, pituitary adenylate cyclase-activating …; assay: SPR (Biacore S200), 37 C, captured antibody, two-fold dilutions of peptide, 1:1 Langmuir model
[20] = target: T7, pituitary adenylate cyclase-activating …; assay: as above

Chain of Glucagon (peptide, as listed by the source): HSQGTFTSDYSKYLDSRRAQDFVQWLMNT

B1: anti-PACAP antibody 890C (antibody, human IgG4 S228P, kappa, V domains shown)
VH: EVQLVQSGAEVKKPGSSVKVSCKASGGTFSDVYMHWVRQAPGQGLEWMGLIYPIFADTRYAQKFQGRVTITADESTSTAYMELSSLRSEDTAVYYCAIDQDGSFAYWGQGTLVTVSS
VL: DIVMTQSPDSLAVSLGERATINCKSSQSLLDADGKTYLNWLQQKPGQPPKRLIYWASTRESGVPDRFSGSGSGTDFTLTISSLQAEDVAVYYCWQGTWFDLTFGGGTKVEIKR
notes: LC S(27E)A, G29, L50W, V51A, K53T, L54R, D55E, H93W, P95D
- binding result [1]: no binding (tested: 37.5 nM)
- binding result [2]: no binding (tested: 37.5 nM)
- binding result [3]: no binding (tested: 37.5 nM)
- binding result [4]: no binding (tested: 37.5 nM)
- binding result [5]: no binding (tested: 37.5 nM)
- binding result [6]: no binding (tested: 37.5 nM)
- binding result [7]: no binding (tested: 37.5 nM)
- selectivity, inhibition of PACAP38-induced cAMP production (PAC1 cells) versus VIP-induced cAMP production (VPAC1 cells) [8]: > 1000 fold
- IC50 (read off the curve), VIP-induced cAMP production in CHO-K1 cells expressing VPAC1 [9]: ~600 nM
- fold shift of the VIP/VPAC1 inhibition curve relative to the PACAP/PAC1 inhibition curve (selectivity) [9]: 1400 fold
- IC50 (read off the curve), PACAP38-induced cAMP production in CHO-K1 cells expressing PAC1 [10]: ~0.4 nM
- Kd [11]: 0.218 nM
- Kd [12]: 0.054 nM
- IC50 (nM), inhibition of PACAP-induced cAMP accumulation [13]: 0.32 nM
- Kd [14]: 0.0284 nM
- koff [14]: 0.000671 s⁻¹
- kon [14]: 2.36e+07 M⁻¹ s⁻¹
- IC50 (nM), PACAP-induced cAMP accumulation in CHO-K1 receptor cell lines (cAMP-Glo) [15]: 0.32 nM
- Kd [16]: 390 nM
- Kd [17]: 0.0284 nM
- koff [17]: 0.000671 s⁻¹
- kon [17]: 2.36e+07 M⁻¹ s⁻¹

B2: anti-PACAP antibody 605C (antibody, V domains shown)
VH: B1 VH with V32S
VL: DIVMTQSPDSLAVSLGERATINCKSSQSLLDADGKTYLNWLQQKPGQPPKRLIYWASTRESGVPDRFSGSGSGTDFTLTISSLQAEDVAVYYCWQGTWFDLTFGGGTKVEIK
- Kd [18]: 225 nM
- IC50 (nM), inhibition of PACAP-induced cAMP accumulation [13]: 0.15 nM
- Kd [19]: 0.154 nM
- koff [19]: 0.00101 s⁻¹
- kon [19]: 6.58e+06 M⁻¹ s⁻¹
- Kd [20]: 0.0328 nM
- koff [20]: 0.000565 s⁻¹
- kon [20]: 1.72e+07 M⁻¹ s⁻¹
- Kd [14]: 0.017 nM
- koff [14]: 0.000566 s⁻¹
- kon [14]: 3.33e+07 M⁻¹ s⁻¹
- Kd [17]: 0.017 nM
- koff [17]: 0.000566 s⁻¹
- kon [17]: 3.33e+07 M⁻¹ s⁻¹
